In patent publication US5378822, “Nucleic acids encoding murine and human Ah receptors” (Wisconsin Alumni Research):

Experiments:
[1] = biological target: AhR-ARNT heterodimer (human AhR + human ARNT) (Homo sapiens, UniProt P35869;P27540 P35869:1-848,P27540:1-789); assay: EMSA; 20 nM TCDD, 2 h room temperature; poly dIdC; ligand dependent; details: tags: reticulocyte lysate TNT; label: 32P end-label; 5' TCGA overhangs
Experimental: (§1) A complementary pair of synthetic oligonucleotides, 5'-[…]-3' Sequence ID. No. 16 and 5'-TCGAGCTGGGC-CCATTGCGTGATCTAC-3' Sequence ID. No. 17 (containing DRE3) were annealed and end-labeled with gamma ^32P-labeled deoxyadenosine triphosphate as described. Sambrook, J., Fritsch, E. F., Maniatis, T., *Molecular Cloning: A Laboratory Manual/second edition* (Cold Spring Harbor Laboratory Press, 1989). Cytosolic extracts (35 μg of protein) obtained from either human SCC cells or murine Hepa 1c1c7 cells (From James P. Whitlock Jr.) were incubated in the presence of DMSO (−) or 20 nM TCDD (+) for 2 hours at either room temperature (human) or 30° (murine). Nonspecific competitor, poly dIdC, was added and incubated 15 minutes at room temperature. The radiolabeled probe was then added and incubated 15 minutes at room temperature followed by nondenaturing gel electrophoresis. In vitro translated human AhR and ARNT proteins were incubated with either DMSO (−) or 20 nM TCDD (+) for 2 hours at room temperature followed by gel shift assays as described above. In vitro translated mouse AhR and humanARNT proteins were incubated with either DMSO (−) or 20 nM TCDD (+) for 2 hours at 30° followed by electrophoretic mobility shift assays.

ARNT alone = ARNT alone (Homo sapiens, UniProt P27540 P27540:1-789); assay: EMSA; no binding without AhR; details: label: 32P end-label; 5' TCGA overhangs
ARNT alone, sequence (P27540 whole entry, one chain of several): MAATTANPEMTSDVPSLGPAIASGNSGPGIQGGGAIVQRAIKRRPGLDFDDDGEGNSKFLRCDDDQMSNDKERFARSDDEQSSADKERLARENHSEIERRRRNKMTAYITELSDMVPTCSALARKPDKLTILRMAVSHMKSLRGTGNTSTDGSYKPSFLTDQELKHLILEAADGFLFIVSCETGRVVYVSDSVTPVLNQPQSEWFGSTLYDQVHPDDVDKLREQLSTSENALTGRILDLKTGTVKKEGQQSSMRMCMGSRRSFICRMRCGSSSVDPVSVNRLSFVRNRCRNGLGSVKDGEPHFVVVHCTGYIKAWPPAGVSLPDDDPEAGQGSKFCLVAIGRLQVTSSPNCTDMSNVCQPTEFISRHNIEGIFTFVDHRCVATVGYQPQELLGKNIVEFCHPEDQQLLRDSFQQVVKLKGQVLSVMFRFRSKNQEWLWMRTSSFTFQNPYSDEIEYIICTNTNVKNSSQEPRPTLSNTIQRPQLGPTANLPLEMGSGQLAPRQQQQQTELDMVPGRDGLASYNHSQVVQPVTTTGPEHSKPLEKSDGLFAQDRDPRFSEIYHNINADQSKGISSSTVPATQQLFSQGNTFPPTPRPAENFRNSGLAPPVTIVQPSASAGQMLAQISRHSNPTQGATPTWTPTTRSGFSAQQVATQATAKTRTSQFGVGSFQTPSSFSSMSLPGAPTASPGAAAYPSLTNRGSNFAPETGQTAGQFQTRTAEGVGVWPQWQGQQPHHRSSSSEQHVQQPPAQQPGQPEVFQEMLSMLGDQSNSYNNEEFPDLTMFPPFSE
Experimental: as §1

[2] = biological target: AhR-ARNT heterodimer (mouse AhR + human ARNT) (Mus musculus / Homo sapiens, UniProt P30561;P27540 P30561:1-805,P27540:1-789); assay: EMSA; 20 nM TCDD, 2 h 30 C; poly dIdC; ligand dependent; details: tags: reticulocyte lysate TNT; label: 32P end-label; 5' TCGA overhangs
AhR-ARNT heterodimer (mouse AhR + human ARNT), sequence (P30561 1-805, chain 1 of 2): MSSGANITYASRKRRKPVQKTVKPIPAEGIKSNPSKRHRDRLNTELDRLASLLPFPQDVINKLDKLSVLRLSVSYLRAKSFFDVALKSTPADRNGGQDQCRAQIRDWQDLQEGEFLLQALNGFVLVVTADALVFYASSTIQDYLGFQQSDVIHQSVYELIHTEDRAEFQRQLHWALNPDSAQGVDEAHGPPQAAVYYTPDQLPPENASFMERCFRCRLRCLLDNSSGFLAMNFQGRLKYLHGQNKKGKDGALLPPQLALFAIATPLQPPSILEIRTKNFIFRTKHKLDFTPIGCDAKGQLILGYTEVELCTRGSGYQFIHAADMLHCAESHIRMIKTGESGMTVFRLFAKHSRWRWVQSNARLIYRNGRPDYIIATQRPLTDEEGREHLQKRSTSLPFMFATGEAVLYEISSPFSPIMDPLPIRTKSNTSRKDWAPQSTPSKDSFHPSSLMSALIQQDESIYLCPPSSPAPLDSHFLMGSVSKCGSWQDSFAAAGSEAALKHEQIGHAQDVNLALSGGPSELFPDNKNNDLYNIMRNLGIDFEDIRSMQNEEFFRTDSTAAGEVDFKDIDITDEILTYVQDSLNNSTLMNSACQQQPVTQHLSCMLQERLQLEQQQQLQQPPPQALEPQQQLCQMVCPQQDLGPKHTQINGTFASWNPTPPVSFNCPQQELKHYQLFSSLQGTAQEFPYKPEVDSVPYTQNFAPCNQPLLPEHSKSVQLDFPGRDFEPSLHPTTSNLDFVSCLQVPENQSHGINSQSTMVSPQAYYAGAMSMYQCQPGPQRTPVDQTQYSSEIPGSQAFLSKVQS
AhR-ARNT heterodimer (mouse AhR + human ARNT), sequence (P27540 whole entry, chain 2 of 2): as the sequence (P27540 whole entry, one chain of several) above
Experimental: as §1

AhR (human) alone = biological target: T1, AhR (human) alone (Homo sapiens, UniProt P35869 SEQ:1-848); assay: EMSA; no binding without ARNT; details: label: 32P end-label; 5' TCGA overhangs
T1 chain: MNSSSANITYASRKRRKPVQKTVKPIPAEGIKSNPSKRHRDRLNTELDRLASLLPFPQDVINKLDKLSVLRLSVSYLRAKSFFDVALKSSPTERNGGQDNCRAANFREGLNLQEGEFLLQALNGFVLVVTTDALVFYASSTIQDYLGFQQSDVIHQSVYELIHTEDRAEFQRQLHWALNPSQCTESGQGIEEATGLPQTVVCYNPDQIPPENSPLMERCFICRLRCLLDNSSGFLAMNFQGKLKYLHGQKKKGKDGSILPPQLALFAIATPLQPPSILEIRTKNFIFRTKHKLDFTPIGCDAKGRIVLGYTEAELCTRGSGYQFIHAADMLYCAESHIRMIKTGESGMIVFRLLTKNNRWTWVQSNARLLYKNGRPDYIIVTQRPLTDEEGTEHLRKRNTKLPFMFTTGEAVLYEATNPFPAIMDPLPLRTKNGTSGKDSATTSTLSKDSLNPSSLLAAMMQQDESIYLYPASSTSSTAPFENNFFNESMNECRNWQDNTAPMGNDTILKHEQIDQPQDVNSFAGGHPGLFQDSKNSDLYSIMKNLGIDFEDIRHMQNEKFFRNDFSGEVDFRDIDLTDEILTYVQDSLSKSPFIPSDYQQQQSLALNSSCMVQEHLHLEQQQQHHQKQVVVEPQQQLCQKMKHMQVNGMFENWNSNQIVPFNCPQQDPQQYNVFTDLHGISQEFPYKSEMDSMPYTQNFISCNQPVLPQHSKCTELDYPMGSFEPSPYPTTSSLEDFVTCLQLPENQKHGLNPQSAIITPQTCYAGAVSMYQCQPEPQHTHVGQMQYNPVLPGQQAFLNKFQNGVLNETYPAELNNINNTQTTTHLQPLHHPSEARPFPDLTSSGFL
Experimental: as §1

AhR-ARNT heterodimer (human AhR + human ARNT), sequence (P27540 whole entry, one chain of several): as the sequence (P27540 whole entry, one chain of several) above

B1: DRE3 (dsDNA)
DNA 1: TCGAGTAGATCACGCAATGGGCCCAGC
DNA 2: TCGAGCTGGGCCCATTGCGTGATCTAC
- binding result [1]: binds
- binding result (ARNT alone): no binding
- binding result [2]: binds
- binding result (AhR (human) alone): no binding
